Laboratory results from patent publication US20220411483A1 (Chugai, published 2022).

T1: FcgRIIaR (human, UniProt P12318 34-217)
T1 construct: extracellular domain; also called FcγRIIa R type; FcγRIIa (R type)
T1 sequence (looked up): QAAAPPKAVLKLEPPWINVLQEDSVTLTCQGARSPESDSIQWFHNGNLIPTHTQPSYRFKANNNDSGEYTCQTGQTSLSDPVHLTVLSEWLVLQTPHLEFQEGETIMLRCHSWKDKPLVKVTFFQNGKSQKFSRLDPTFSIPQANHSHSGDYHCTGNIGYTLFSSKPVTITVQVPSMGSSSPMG

T2: FcgRIIb (human, UniProt P31994 43-217)
T2 construct: extracellular domain; also called FcγRIIb
T2 sequence (looked up): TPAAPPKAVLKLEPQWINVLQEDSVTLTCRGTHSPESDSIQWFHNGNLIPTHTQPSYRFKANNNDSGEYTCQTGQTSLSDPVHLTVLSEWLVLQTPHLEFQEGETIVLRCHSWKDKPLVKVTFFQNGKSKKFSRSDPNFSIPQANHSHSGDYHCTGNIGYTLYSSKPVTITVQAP

T3: FcgRIIaH (human, UniProt P12318 34-217)
T3 construct: extracellular domain; also called FcγRIIa H type
T3 sequence (looked up): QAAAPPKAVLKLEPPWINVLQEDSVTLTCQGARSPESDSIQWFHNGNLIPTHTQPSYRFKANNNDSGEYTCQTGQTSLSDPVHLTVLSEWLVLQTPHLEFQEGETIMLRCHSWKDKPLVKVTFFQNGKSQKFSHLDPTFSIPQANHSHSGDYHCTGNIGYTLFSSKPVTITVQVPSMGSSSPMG


How the values were obtained:
FcgRIIaR [1] = molecular target: T1, FcgRIIaR; assay: SPR, amount bound per captured antibody
FcgRIIb [2] = molecular target: T2, FcgRIIb; assay: SPR, amount bound per captured antibody
FcgRIIaR [3] = molecular target: T1, FcgRIIaR; assay: SPR, amount bound per captured antibody; remark: listed apart in the source
FcgRIIb [4] = molecular target: T2, FcgRIIb; assay: SPR, amount bound per captured antibody; remark: listed apart in the source
FcgRIIaH = molecular target: T3, FcgRIIaH; assay: SPR (Biacore)
FcgRIIaR [5] = molecular target: T1, FcgRIIaR; assay: SPR (Biacore)
FcgRIIIaV = molecular target: T4, FcgRIIIaV (human, UniProt P08637 17-208); assay: SPR (Biacore)
T4 construct: extracellular domain; also called FcγRIIIa V type
T4 sequence (P08637 17-208 F176V): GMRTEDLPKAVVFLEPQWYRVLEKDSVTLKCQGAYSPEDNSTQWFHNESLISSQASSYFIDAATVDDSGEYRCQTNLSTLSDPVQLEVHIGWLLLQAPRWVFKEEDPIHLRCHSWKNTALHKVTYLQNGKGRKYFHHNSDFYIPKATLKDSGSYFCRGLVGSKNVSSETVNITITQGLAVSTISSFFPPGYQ

FcgRIa = molecular target: T5, FcgRIa (human, UniProt P12314 16-292); assay: SPR (Biacore)
T5 construct: also called FcγRIa; FcγRI
T5 sequence (P12314 16-292): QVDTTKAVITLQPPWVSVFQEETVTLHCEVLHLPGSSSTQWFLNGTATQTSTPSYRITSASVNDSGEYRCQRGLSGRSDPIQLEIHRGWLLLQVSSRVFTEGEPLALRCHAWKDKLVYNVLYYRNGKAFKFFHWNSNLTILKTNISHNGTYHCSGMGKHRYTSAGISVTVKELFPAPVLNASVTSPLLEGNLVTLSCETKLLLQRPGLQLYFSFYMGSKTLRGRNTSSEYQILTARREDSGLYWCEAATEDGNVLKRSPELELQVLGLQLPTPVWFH

FcgRIIb [6] = molecular target: T2, FcgRIIb; assay: SPR (Biacore)

Row | Binder | Relative FcgRIIaR-binding Activity (FcgRIIaR [1]) | Relative FcgRIIb-binding Activity (FcgRIIb [2]) | Relative FcgRIIaR-binding Activity (FcgRIIaR [3]) | Relative FcgRIIb-binding Activity (FcgRIIb [4]) | Relative FcgRIIaH-binding Activity (FcgRIIaH) | Relative FcgRIIaR-binding Activity (FcgRIIaR [5]) | Relative FcgRIIIaV-binding Activity (FcgRIIIaV) | Relative FcgRIa-binding Activity (FcgRIa) | Relative FcgRIIb-binding Activity (FcgRIIb [6])
1 | IL6R-BP355/IL6R-L (antibody, human IgG1, kappa, name in EU numbering) heavy: QVQLQESGPGLVKPSETLSLTCAVSGHSISHDHAWSWVRQPPGEGLEWIGFISYSGITNYNPSLQGRVTISRDNSKNTLYLQMNSLRAEDTAVYYCARSLARTTAMDYWGEGTLVTVSSASTKGPSVFPLAPSSKSTSGGTAALGCLVKDYFPEPVTVSWNSGALTSGVHTFPAVLQSSGLYSLSSVVTVPSSSLGTQTYICNVNHKPSNTKVDKKVEPKSCDKTHTCPPCPAPDLLGDDSVFLFPPKPKDTLMISRTPEVTCVVVDVKEEDGEVKFNWYVDGVEVHNAKTKPREEQYNSTYRVVSVLTVLHQDWLNGKEYKCKVSNKALPAPIEKTISKAKGQPREPQVYTLPPSRDELTKNQVSLTCLVKGFYPSDIAVEWESNGQPENNYKTTPPVLDSDGSFFLYSKLTVDKSRWQQGNVFSCSVMHEALHNHYTQESLSLSP light: not shown | 11.6 IL6R-BP267/IL6R-L=100 | 14.4 IL6R-BP267/IL6R-L=100 | – | – | – | – | – | – | –
2 | IL6R-P626/IL6R-L (antibody, human IgG1, kappa) heavy: QVQLQESGPGLVKPSETLSLTCAVSGHSISHDHAWSWVRQPPGEGLEWIGFISYSGITNYNPSLQGRVTISRDNSKNTLYLQMNSLRAEDTAVYYCARSLARTTAMDYWGEGTLVTVSSASTKGPSVFPLAPSSKSTSGGTAALGCLVKDYFPEPVTVSWNSGALTSGVHTFPAVLQSSGLYSLSSVVTVPSSSLGTQTYICNVNHKPSNTKVDKKVEPKSCDKTHTCPPCPAPDRLGGDSVFLFPPKPKDTLMISRTPEVTCVVIDVAEEDGEVKFNWYVDGVEVHNAKTKPREEQYNSTYRVVSVLTVLHQDWLNGKEYKCKVSNKALPAPIEKTISKAKGQPREPQVYTLPPSRDELTKNQVSLTCLVKGFYPSDIAVEWESNGQPENNYKTTPPVLDSDGSFFLYSKLTVDKSRWQQGNVFSCSVMHEALHNHYTQKSLSLSP light: not shown | – | – | 24.4 IL6R-G1d/IL6R-L=100 | 129 IL6R-G1d/IL6R-L=100 | 0.005 KD(G1d)/KD(variant) | 0.041 KD(G1d)/KD(variant) | 0.005 KD(G1d)/KD(variant) | 0.0004 KD(G1d)/KD(variant) | 1.9 KD(G1d)/KD(variant)
3 | IL6R-P636/IL6R-L (antibody, human IgG1, kappa) heavy: QVQLQESGPGLVKPSETLSLTCAVSGHSISHDHAWSWVRQPPGEGLEWIGFISYSGITNYNPSLQGRVTISRDNSKNTLYLQMNSLRAEDTAVYYCARSLARTTAMDYWGEGTLVTVSSASTKGPSVFPLAPSSKSTSGGTAALGCLVKDYFPEPVTVSWNSGALTSGVHTFPAVLQSSGLYSLSSVVTVPSSSLGTQTYICNVNHKPSNTKVDKKVEPKSCDKTHTCPPCPAPDLLGGDSVFLFPPKPKDTLMISRTPEVTCVVIDVREEDGEVKFNWYVDGVEVHNAKTKPREEQYNSTYRVVSVLTVLHQDWLNGKEYKCKVSNKALPAPIEKTISKAKGQPREPQVYTLPPSRDELTKNQVSLTCLVKGFYPSDIAVEWESNGQPENNYKTTPPVLDSDGSFFLYSKLTVDKSRWQQGNVFSCSVMHEALHNHYTQKSLSLSP light: not shown | – | – | 13.8 IL6R-G1d/IL6R-L=100 | 120 IL6R-G1d/IL6R-L=100 | 0.006 KD(G1d)/KD(variant) | 0.023 KD(G1d)/KD(variant) | 0.008 KD(G1d)/KD(variant) | 0.0007 KD(G1d)/KD(variant) | 1.77 KD(G1d)/KD(variant)
4 | IL6R-BP361/IL6R-L (antibody, human IgG1, kappa, name in EU numbering) heavy: QVQLQESGPGLVKPSETLSLTCAVSGHSISHDHAWSWVRQPPGEGLEWIGFISYSGITNYNPSLQGRVTISRDNSKNTLYLQMNSLRAEDTAVYYCARSLARTTAMDYWGEGTLVTVSSASTKGPSVFPLAPSSKSTSGGTAALGCLVKDYFPEPVTVSWNSGALTSGVHTFPAVLQSSGLYSLSSVVTVPSSSLGTQTYICNVNHKPSNTKVDKKVEPKSCDKTHTCPPCPAPDLLGDDSVFLFPPKPKDTLMISRTPEVTCVVVDVREEDGEVKFNWYVDGVEVHNAKTKPREEQYNSTYRVVSVLTVLHQDWLNGKEYKCKVSNKALPAPIEKTISKAKGQPREPQVYTLPPSRDELTKNQVSLTCLVKGFYPSDIAVEWESNGQPENNYKTTPPVLDSDGSFFLYSKLTVDKSRWQQGNVFSCSVMHEALHNHYTQESLSLSP light: not shown | 17.3 IL6R-BP267/IL6R-L=100 | 27.7 IL6R-BP267/IL6R-L=100 | – | – | – | – | – | – | –
5 | IL6R-P652/IL6R-L (antibody, human IgG1, kappa) heavy: QVQLQESGPGLVKPSETLSLTCAVSGHSISHDHAWSWVRQPPGEGLEWIGFISYSGITNYNPSLQGRVTISRDNSKNTLYLQMNSLRAEDTAVYYCARSLARTTAMDYWGEGTLVTVSSASTKGPSVFPLAPSSKSTSGGTAALGCLVKDYFPEPVTVSWNSGALTSGVHTFPAVLQSSGLYSLSSVVTVPSSSLGTQTYICNVNHKPSNTKVDKKVEPKSCDKTHTCPPCPAPDLLGDDSVFLFPPKPKDTLMISRTPEVTCVVIDVYEEDGEVKFNWYVDGVEVHNAKTKPREEQDNSTYRVVSVLTVLHQDWLNGKEYKCKVSNKALPRPIEKTISKAKGQPREPQVYTLPPSRDELTKNQVSLTCLVKGFYPSDIAVEWESNGQPENNYKTTPMVLDSDGSFFLYSKLTVDKSRWQQGNVFSCSVMHEALHNHYTQKSLSLSP light: not shown | – | – | 27.5 IL6R-G1d/IL6R-L=100 | 149 IL6R-G1d/IL6R-L=100 | 0.006 KD(G1d)/KD(variant) | 0.051 KD(G1d)/KD(variant) | 0.005 KD(G1d)/KD(variant) | 0.0005 KD(G1d)/KD(variant) | 4.18 KD(G1d)/KD(variant)
6 | IL6R-P629/IL6R-L (antibody, human IgG1, kappa) heavy: QVQLQESGPGLVKPSETLSLTCAVSGHSISHDHAWSWVRQPPGEGLEWIGFISYSGITNYNPSLQGRVTISRDNSKNTLYLQMNSLRAEDTAVYYCARSLARTTAMDYWGEGTLVTVSSASTKGPSVFPLAPSSKSTSGGTAALGCLVKDYFPEPVTVSWNSGALTSGVHTFPAVLQSSGLYSLSSVVTVPSSSLGTQTYICNVNHKPSNTKVDKKVEPKSCDKTHTCPPCPAPDLLGKDSVFLFPPKPKDTLMISRTPEVTCVVIDVAEEDGEVKFNWYVDGVEVHNAKTKPREEQYNSTYRVVSVLTVLHQDWLNGKEYKCKVSNKALPAPIEKTISKAKGQPREPQVYTLPPSRDELTKNQVSLTCLVKGFYPSDIAVEWESNGQPENNYKTTPPVLDSDGSFFLYSKLTVDKSRWQQGNVFSCSVMHEALHNHYTQKSLSLSP light: not shown | – | – | 29.9 IL6R-G1d/IL6R-L=100 | 164 IL6R-G1d/IL6R-L=100 | 0.01 KD(G1d)/KD(variant) | 0.047 KD(G1d)/KD(variant) | 0.007 KD(G1d)/KD(variant) | 0.1 KD(G1d)/KD(variant) | 7.97 KD(G1d)/KD(variant)
7 | IL6R-P625/IL6R-L (antibody, human IgG1, kappa) heavy: QVQLQESGPGLVKPSETLSLTCAVSGHSISHDHAWSWVRQPPGEGLEWIGFISYSGITNYNPSLQGRVTISRDNSKNTLYLQMNSLRAEDTAVYYCARSLARTTAMDYWGEGTLVTVSSASTKGPSVFPLAPSSKSTSGGTAALGCLVKDYFPEPVTVSWNSGALTSGVHTFPAVLQSSGLYSLSSVVTVPSSSLGTQTYICNVNHKPSNTKVDKKVEPKSCDKTHTCPPCPAPDKLGGDSVFLFPPKPKDTLMISRTPEVTCVVIDVAEEDGEVKFNWYVDGVEVHNAKTKPREEQYNSTYRVVSVLTVLHQDWLNGKEYKCKVSNKALPAPIEKTISKAKGQPREPQVYTLPPSRDELTKNQVSLTCLVKGFYPSDIAVEWESNGQPENNYKTTPPVLDSDGSFFLYSKLTVDKSRWQQGNVFSCSVMHEALHNHYTQKSLSLSP light: not shown | – | – | 26.8 IL6R-G1d/IL6R-L=100 | 141 IL6R-G1d/IL6R-L=100 | 0.005 KD(G1d)/KD(variant) | 0.051 KD(G1d)/KD(variant) | 0.005 KD(G1d)/KD(variant) | 0.0007 KD(G1d)/KD(variant) | 3.06 KD(G1d)/KD(variant)
8 | IL6R-P631/IL6R-L (antibody, human IgG1, kappa) heavy: QVQLQESGPGLVKPSETLSLTCAVSGHSISHDHAWSWVRQPPGEGLEWIGFISYSGITNYNPSLQGRVTISRDNSKNTLYLQMNSLRAEDTAVYYCARSLARTTAMDYWGEGTLVTVSSASTKGPSVFPLAPSSKSTSGGTAALGCLVKDYFPEPVTVSWNSGALTSGVHTFPAVLQSSGLYSLSSVVTVPSSSLGTQTYICNVNHKPSNTKVDKKVEPKSCDKTHTCPPCPAPDLLGGDSVFLFPPKPKDTLMISRTPEVTCVVINVAEEDGEVKFNWYVDGVEVHNAKTKPREEQYNSTYRVVSVLTVLHQDWLNGKEYKCKVSNKALPAPIEKTISKAKGQPREPQVYTLPPSRDELTKNQVSLTCLVKGFYPSDIAVEWESNGQPENNYKTTPPVLDSDGSFFLYSKLTVDKSRWQQGNVFSCSVMHEALHNHYTQKSLSLSP light: not shown | – | – | 26.7 IL6R-G1d/IL6R-L=100 | 110 IL6R-G1d/IL6R-L=100 | 0.01 KD(G1d)/KD(variant) | 0.048 KD(G1d)/KD(variant) | 0.007 KD(G1d)/KD(variant) | 0.03 KD(G1d)/KD(variant) | 1.16 KD(G1d)/KD(variant)
